The values that follow come from patent US10239925B2, “Peptides and combination of peptides for use in immunotherapy against ovarian cancer and other cancers” (IMMATICS BIOTECHNOLOGIES GMBH, priority 2015, dated 2019).

The experiment concerns the target HLA-A*02:01 (Homo sapiens, UniProt P04439, D140Y/D185E/D98H/E176V/E277Q/G131W/G231S/I119V/I121R/I166T/I218V/L300P/L318F/N151K/N90K/P208A/P217A/Q86G/Q94H/R138H/R169H/T345S). Kind of experiment: MHC binding assay (UV-ligand exchange, anti-β2m ELISA, peptide exchange yield). As to conditions: binding to HLA-A*02:01. Summed up:
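Yield of stabilized complexes quantified via the β2m light chain in an ELISA (streptavidin capture, 100-fold diluted monomers, HRP anti-β2m 2 ug/ml at 37 °C, TMB, A450). The complexes come from UV-triggered replacement of a photocleavable ligand by the candidate peptide.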
(In an ELISA, binding on a coated surface is turned into a signal by an enzyme label.)

On to “296 (FMEGAIIYV; listed as Homo sapiens) [compound 296]”, for which the “Peptide exchange (MHC class I binding score, peptide exchange yield)” value (from here on “Peptide exchange”) is on record as ““+++” (>50 = +++)”.

For “297 (VLADIELAQA; listed as Homo sapiens) [compound 297]”, the “Peptide exchange” value was ““+++” (>50 = +++)”.

On to “298 (VMITKLVEV; listed as Homo sapiens) [compound 298]”, for which the “Peptide exchange” value is ““+++” (>50 = +++)”.

In the case of “299 (YLLETSGNL; listed as Homo sapiens) [compound 299]”, the “Peptide exchange” value is ““+++” (>50 = +++)”.

For the substance “300 (ALLGQTFSL; listed as Homo sapiens) [compound 300]”, the “Peptide exchange” value is recorded as ““+++” (>50 = +++)”.

With “301 (FLVEDLVDSL; listed as Homo sapiens) [compound 301]”, the “Peptide exchange” value is listed as ““+++” (>50 = +++)”.

As for “302 (ALLQEGEVYSA; listed as Homo sapiens) [compound 302]”, the “Peptide exchange” value is reported as ““+++” (>50 = +++)”.

For “303 (AILPQLFMV; listed as Homo sapiens) [compound 303]”, the “Peptide exchange” value is listed as ““++++” (>75% = ++++)”.

With “304 (MTLGQIYYL; listed as Homo sapiens) [compound 304]”, the “Peptide exchange” value is given as ““+++” (>50 = +++)”.

Take “305 (SIANFSEFYV; listed as Homo sapiens) [compound 305]”: the “Peptide exchange” value is reported as ““++++” (>75% = ++++)”.

On to “306 (ALVNVQIPL; listed as Homo sapiens) [compound 306]”, for which the “Peptide exchange” value is ““+++” (>50 = +++)”.

Regarding “307 (ALPVSLPQI; listed as Homo sapiens) [compound 307]”, the “Peptide exchange” value is ““+++” (>50 = +++)”.

With “308 (SQYSGQLHEV; listed as Homo sapiens) [compound 308]”, the “Peptide exchange” value is ““+++” (>50 = +++)”.

As to “309 (GLFDGVPTTA; listed as Homo sapiens) [compound 309]”, the “Peptide exchange” value is given as ““+++” (>50 = +++)”.

Take “310 (FLVDTPLARA; listed as Homo sapiens) [compound 310]”: the “Peptide exchange” value is listed as ““++++” (>75% = ++++)”.

Take “311 (RLYTGMHTV; listed as Homo sapiens) [compound 311]”: the “Peptide exchange” value is listed as ““+++” (>50 = +++)”.

On to “312 (IISDLTIAL; listed as Homo sapiens) [compound 312]”, for which the “Peptide exchange” value is ““+++” (>50 = +++)”.

On to “313 (VLFDDELLMV; listed as Homo sapiens) [compound 313]”, for which the “Peptide exchange” value is listed as ““+++” (>50 = +++)”.

“314 (ALIAEGIALV; listed as Homo sapiens) [compound 314]”: the “Peptide exchange” value is ““+++” (>50 = +++)”.

For “315 (YLQDVVEQA; listed as Homo sapiens) [compound 315]”, the “Peptide exchange” value is listed as ““+++” (>50 = +++)”.

With “316 (ILLERLWYV; listed as Homo sapiens) [compound 316]”, the “Peptide exchange” value was ““+++” (>50 = +++)”.

In the case of “317 (SLAALVVHV; listed as Homo sapiens) [compound 317]”, the “Peptide exchange” value is listed as ““+++” (>50 = +++)”.

Regarding “318 (GLINTGVLSV; listed as Homo sapiens) [compound 318]”, the “Peptide exchange” value is listed as ““++” (>20% = ++)”.

For “320 (KMFEFVEPLL; listed as Homo sapiens) [compound 320]”, the “Peptide exchange” value is reported as ““++++” (>75% = ++++)”.

With “321 (GLFEDVTQPGILL; listed as Homo sapiens) [compound 321]”, the “Peptide exchange” value is listed as ““++++” (>75% = ++++)”.

On to “322 (TLMTSLPAL; listed as Homo sapiens) [compound 322]”, for which the “Peptide exchange” value was ““+++” (>50 = +++)”.

For “324 (FLYDEIEAEV; listed as Homo sapiens) [compound 324]”, the “Peptide exchange” value was ““+++” (>50 = +++)”.

In the case of “325 (FIMPATVADATAV; listed as Homo sapiens) [compound 325]”, the “Peptide exchange” value is listed as ““+++” (>50 = +++)”.

In the case of “326 (FLPEALDFV; listed as Homo sapiens) [compound 326]”, the “Peptide exchange” value is ““+++” (>50 = +++)”.

With “327 (GLAPFTEGISFV; listed as Homo sapiens) [compound 327]”, the “Peptide exchange” value is reported as ““+++” (>50 = +++)”.

On to “328 (ALNDQVFEI; listed as Homo sapiens) [compound 328]”, for which the “Peptide exchange” value is on record as ““+++” (>50 = +++)”.

As for “329 (FLVTLNNVEV; listed as Homo sapiens) [compound 329]”, the “Peptide exchange” value was ““++++” (>75% = ++++)”.

Regarding “330 (QLALKVEGV; listed as Homo sapiens) [compound 330]”, the “Peptide exchange” value is given as ““+++” (>50 = +++)”.

As for “331 (KVDTVWVNV; listed as Homo sapiens) [compound 331]”, the “Peptide exchange” value is given as ““+++” (>50 = +++)”.

Consider “332 (YLISELEAA; listed as Homo sapiens) [compound 332]”, for which the “Peptide exchange” value is listed as ““+++” (>50 = +++)”.

With “333 (FLPDANSSV; listed as Homo sapiens) [compound 333]”, the “Peptide exchange” value is recorded as ““++” (>20% = ++)”.

Turning to “334 (TLTKVLVAL; listed as Homo sapiens) [compound 334]”, the “Peptide exchange” value is ““+++” (>50 = +++)”.

With “335 (YSLSSVVTV; listed as Homo sapiens) [compound 335]”, the “Peptide exchange” value is reported as ““+++” (>50 = +++)”.

For the substance “336 (ILLTAIVQV; listed as Homo sapiens) [compound 336]”, the “Peptide exchange” value is listed as ““+++” (>50 = +++)”.

Turning to “337 (HLLSELEAAPYL; listed as Homo sapiens) [compound 337]”, the “Peptide exchange” value is given as ““++++” (>75% = ++++)”.

Turning to “339 (GLWEIENNPTVKA; listed as Homo sapiens) [compound 339]”, the “Peptide exchange” value is ““++++” (>75% = ++++)”.

Regarding “340 (ALLSMTFPL; listed as Homo sapiens) [compound 340]”, the “Peptide exchange” value was ““++++” (>75% = ++++)”.

For “341 (SQIALNEKLVNL; listed as Homo sapiens) [compound 341]”, the “Peptide exchange” value is recorded as ““+++” (>50 = +++)”.

As for “342 (HIYDKVMTV; listed as Homo sapiens) [compound 342]”, the “Peptide exchange” value was ““+++” (>50 = +++)”.

As for “343 (SLLEVNEESTV; listed as Homo sapiens) [compound 343]”, the “Peptide exchange” value is reported as ““+++” (>50 = +++)”.

With “344 (YLQDQHLLLTV; listed as Homo sapiens) [compound 344]”, the “Peptide exchange” value is ““+++” (>50 = +++)”.

For “345 (VIWKALIHL; listed as Homo sapiens) [compound 345]”, the “Peptide exchange” value is given as ““+++” (>50 = +++)”.

For “346 (LLDSKVPSV; listed as Homo sapiens) [compound 346]”, the “Peptide exchange” value is reported as ““+++” (>50 = +++)”.

On to “347 (SLFKHDPAAWEA; listed as Homo sapiens) [compound 347]”, for which the “Peptide exchange” value was ““++++” (>75% = ++++)”.

“348 (ILLDVKTRL; listed as Homo sapiens) [compound 348]”: the “Peptide exchange” value is ““++++” (>75% = ++++)”.

Regarding “349 (SLTEYLQNV; listed as Homo sapiens) [compound 349]”, the “Peptide exchange” value is on record as ““++++” (>75% = ++++)”.

For the substance “350 (ALLDVTHSELTV; listed as Homo sapiens) [compound 350]”, the “Peptide exchange” value is ““+++” (>50 = +++)”.

Consider “351 (SLIPNLRNV; listed as Homo sapiens) [compound 351]”, for which the “Peptide exchange” value is ““+++” (>50 = +++)”.

Turning to “352 (SLLELLHIYV; listed as Homo sapiens) [compound 352]”, the “Peptide exchange” value is reported as ““+++” (>50 = +++)”.

As for “353 (YLFEMDSSL; listed as Homo sapiens) [compound 353]”, the “Peptide exchange” value is ““++” (>20% = ++)”.

Take “354 (LILEGVDTV; listed as Homo sapiens) [compound 354]”: the “Peptide exchange” value is recorded as ““++” (>20% = ++)”.

Regarding “355 (SIQQSIERLLV; listed as Homo sapiens) [compound 355]”, the “Peptide exchange” value is ““++” (>20% = ++)”.

On to “356 (KLLGKLPEL; listed as Homo sapiens) [compound 356]”, for which the “Peptide exchange” value is on record as ““+++” (>50 = +++)”.

For the substance “357 (SMHDLVLQV; listed as Homo sapiens) [compound 357]”, the “Peptide exchange” value is given as ““+++” (>50 = +++)”.

With “358 (ALDEYTSEL; listed as Homo sapiens) [compound 358]”, the “Peptide exchange” value is ““++++” (>75% = ++++)”.

As to “359 (YLLPESVDL; listed as Homo sapiens) [compound 359]”, the “Peptide exchange” value was ““+++” (>50 = +++)”.
